Results taken from the supplement of paper PMC10567573.
± gives the standard deviation.

Test: protein stability index of a GFP-peptide fusion (GPS, HEK-293T) (PSI 1-6); higher = more stable
Settings: c terminus: a fixed tail appended
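Note: 24-mer peptide tiles fused after GFP, lentivirally expressed, FACS-sorted into six equal bins by GFP/DsRed ratio, decoded by Illumina sequencing, PSI is the read-weighted mean bin number.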

| Sequence | protein stability index (treatment: DMSO) | protein stability index (treatment: MLN4924 1 uM, 8 h) |
| --- | --- | --- |
| RGADDAMESSKPGPVQVVLVQKDQ [ATL3] | 5.09 ± 0.3 | 4.95 ± 0.62 |
| RGAQGVILVYDIANRWSFDGIDRW [RAB40B] | 2.29 ± 0.65 | 2.19 ± 0.15 |
| RGPSPVVLGSQDALPIATAFTEYV [FCHO1] | 3.14 ± 0.39 | 3.18 ± 0.3 |
| RHQRTHTGEKPYQCNICGKCFSCN [ZNF263] | 4.08 ± 0.43 | 4.37 ± 0.3 |
| RIDELIESGKEEGMKIDLIDGKGR [KMT5A] | 4.96 ± 0.23 | 4.85 ± 0.33 |
| RIFTSNTHSSVVLQGFDQLRLEGL [KLHL13] | 2.42 ± 0.18 | 2.49 ± 0.27 |
| RIKIRQCIGLQNLKLLDELPIAKV [ASB7] | 2.12 ± 0.31 | 2.19 ± 0.49 |
| RKCPVHGKTMELFCQTDQTCICYL [TRIM29] | 2.94 ± 0.61 | 3.72 ± 0.59 |
| RKKSGDLKKAKVQVERMREVNSRC [FBXO34] | 4.15 ± 0.17 | 4.38 ± 0.42 |
| RLLRDSEAFCHANCSGPAPAAKPD [P3H4] | 4.01 ± 0.35 | 4.01 ± 0.47 |
| RLRALGERHTMDLTVEGFQSWMWR [TMEM120A] | 2.38 ± 0.27 | 2.58 ± 0.49 |
| RNGQWSEPPKCLDPCVISQEIMEK [CFHR2] | 4.24 ± 0.063 | 4.07 ± 0.24 |
| RPARSTLDELLGRGMATKLLARPG [FBF1] | 2.61 ± 0.19 | 2.63 ± 0.17 |
| RQLMKVVNEMCPNITRIYNIGKSH [CPXM2] | 2.26 ± 0.12 | 2.71 ± 0.56 |
| RQLPPPPTPANEERRGGLPPLPLH [WAS] | 4.53 ± 0.22 | 4.52 ± 0.14 |
| RQLRRRALHPERAMDNHSDSEEEL [RETREG3] | 5.47 ± 0.15 | 5.51 ± 0.2 |
| RQTSTKAVQHFYNIKLEGKVPMHK [ESRRG] | 3.32 ± 0.11 | 3.5 ± 0.26 |
| RRDCDALMAGCIQEARERWNFDFV [CDKN1A] | 2.06 ± 0.25 | 2.05 ± 0.19 |
| RRGLLVSLNELMIVIGILSAYISN [SLC2A12] | 3.05 ± 0.72 | 2.67 ± 0.84 |
| RRNPELQEELQIQAAVAAGDVHTV [ASB7] | 4.85 ± 0.18 | 4.82 ± 0.16 |
| RRRGPRNKKRGWRRLAQEPLGLEV [NOP53] | 3.65 ± 0.18 | 3.73 ± 0.4 |
| RRSRDPGYDHLWDETLSSSHQKCP [PLEKHN1] | 3.81 ± 0.32 | 4.04 ± 0.13 |
| RRTRPRHHHGRSRPDRSSQGGSLP [CHGB] | 4.93 ± 0.36 | 5.07 ± 0.23 |

| Sequence | protein stability index (treatment: DMSO) | protein stability index (treatment: MLN4924 1 uM, 8 h) |
| --- | --- | --- |
| RSIPDTQLEQVIESQKANQCAVLI [ACSBG2] | 3.54 ± 0.14 | 3.67 ± 0.47 |
| RSPSGSLRSARGSRGGTRGWLPSH [RBMY1A1] | 3.95 ± 0.18 | 4.07 ± 0.17 |
| RSYIKLFQAPCQRCGKFLQDGLPP [MED27] | 2.19 ± 0.17 | 2 ± 0.1 |
| RTIVKGYNENVYTEDGKLDIWSKS [MED27] | 3.84 ± 0.35 | 3.91 ± 0.3 |
| RTMLDFPQHVSSDKEVRAASTEAD [NLN] | 5.55 ± 0.23 | 4.74 ± 1.4 |
| RTPEILKKALSGLSSRWKNWWIRG [CDS1] | 2.49 ± 0.86 | 2.26 ± 0.73 |
| RTPSAFPQTPAAPPATLGEGSADT [EHMT1] | 5.3 ± 0.21 | 5.25 ± 0.12 |
| RVGQWVRMENVTVLGEDVIVNDEL [GMPPB] | 4.01 ± 0.066 | 4.07 ± 0.24 |
| RVLRGRPGAGSRRRGRMALCGQAA [FBXO33] | 4 ± 0.18 | 4.74 ± 0.22 |
| RVQGVLRGRAREREQLQAEASERF [HES6] | 4.39 ± 0.32 | 4.48 ± 0.25 |
| RVVSWLVSAEGSHPDPAPFCADNP [DVL3] | 2.35 ± 0.3 | 2.58 ± 0.24 |
| RWCCCCGERETRTPEELTILGETQ [CLCN6] | 3.76 ± 0.27 | 3.79 ± 0.18 |
| RYLVGEHQADLEVANRHGHTCLMI [FEM1A] | 2.19 ± 0.42 | 2.38 ± 0.24 |
| SAGSPPELQGLPELHEECEGNHPS [NET1] | 5.46 ± 0.17 | 5.56 ± 0.16 |
| SAKTRQRVEDAFYTLVREIRQYRL [KRAS] | – | 2.31 ± 0.4 |
| SASSIKQILLEWCRSKTLGYQHVD [SMTNL2] | 2.22 ± 0.19 | 2.42 ± 0.35 |
| SAVARSNSWMGSQGPMSQRRENYG [RBMY1A1] | 3.68 ± 0.43 | 3.96 ± 0.5 |
| SCIGNKQKAVKSCLVCQASFCELH [TRIM29] | 3.51 ± 0.16 | 3.79 ± 0.34 |
| SDTTPLPSWAALNSSTWGSLKQAL [SNX8] | 2.7 ± 0.2 | 2.94 ± 0.12 |
| SEDLDGHSDPEESFARDLPDFPSI [RETREG3] | 5.33 ± 0.2 | 5.13 ± 0.45 |
| SEEALRADGFGDNPFYHCLVAEIL [SAT2] | 3.08 ± 0.24 | 3.26 ± 0.25 |
| SEEMIAEFKAAFDMFDADGGGDIS [TNNC2] | 5.16 ± 0.32 | 5.11 ± 0.43 |
| SEEQVSKNLFGPPLESAFDHEDFT [FCHO1] | 5.22 ± 0.4 | 5.26 ± 0.21 |

| Sequence | protein stability index (treatment: DMSO) | protein stability index (treatment: MLN4924 1 uM, 8 h) |
| --- | --- | --- |
| SEREANDALNAYVCKGLPQHEEIC [INTS3] | 4.56 ± 0.23 | 4.52 ± 0.25 |
| SFFYPVLFVLFMFFGMAFNFIVND [SOAT1] | 2 ± 0.2 | 1.96 ± 0.32 |
| SFSEETEKKFEHFSGLLNNQLSPQ [LOXL2] | 4.09 ± 0.47 | 4.56 ± 0.18 |
| SFSNYRPFEPQALGLSPSWRLTGF [SEPHS2] | 1.95 ± 0.2 | 2.01 ± 0.42 |
| SFVYVNPEDGRIFAQRTFDYELLQ [PCDHGC5] | 2.2 ± 0.26 | 2.56 ± 0.28 |
| SGETWNPLKLHYQLRNVRERLAKN [GOLPH3] | 2.87 ± 0.54 | 3.03 ± 0.21 |
| SGKELKIDIIPNPQERTLTLVDTG [HSP90AB1] | 3.98 ± 0.42 | 3.58 ± 0.48 |
| SGTMGAAKVTGEVLDILTRLPESV [FLOT1] | 3.64 ± 0.38 | 3.71 ± 0.24 |
| SHSKAPSGSQMSHNAVTSHQRPGW [NCF4] | 3.88 ± 0.23 | 4.05 ± 0.22 |
| SINQRLNKRERSKLKNLRRKQRRR [RNF180] | 3.9 ± 0.14 | 3.93 ± 0.24 |
| SKFRRKDREDSPERCSDSDEEKKA [CLINT1] | 5.43 ± 0.27 | 5.47 ± 0.14 |
| SKLAQLTLEQILEHLDNLRLNLTN [INTS3] | 2.3 ± 0.39 | 2.2 ± 0.21 |
| SKSNLGWTPLHLACYFGHRQVVQD [OSBPL1A] | 2.62 ± 0.6 | 2.12 ± 0.55 |
| SKYLLEEWFQNCYARYHQAFADRD [TEKT4] | 2.48 ± 0.24 | 2.15 ± 0.25 |
| SLAAFSVISVVSYLILALLSVTIS [RTN3] | 3.41 ± 0.21 | 2.8 ± 0.19 |
| SLAEVRVGYQSQNISCFFRLVDRD [MYORG] | 2.42 ± 0.24 | 2.45 ± 0.26 |
| SLEISPQNVDVNVHPTKHEVHFLH [MLH1] | 3.46 ± 0.23 | 3.63 ± 0.32 |
| SLESEEEEYPGITAEDSNDIYILP [BCL2L13] | 5.06 ± 0.22 | 5.05 ± 0.23 |
| SLFKLKPLSNKTATDDTGGKDPRN [PLD5] | 4.44 ± 0.54 | 4.65 ± 0.11 |
| SLGQLPLPPIPHVFSAGTGSAILP [PLAGL1] | 2.82 ± 0.28 | 3.07 ± 0.22 |
| SLIPPRSEQLVNFTGKAEMGGPFS [TMEM106C] | 3.65 ± 0.34 | 3.47 ± 0.3 |
| SLKKGSLVKNLKDTLGLGKTRRKT [NCK2] | 3.96 ± 0.18 | 3.81 ± 0.31 |
| SLKLKSSHHSKHKAPSKLGLIISG [DLC1] | 2.66 ± 0.072 | 2.77 ± 0.55 |

| Sequence | protein stability index (treatment: DMSO) | protein stability index (treatment: MLN4924 1 uM, 8 h) |
| --- | --- | --- |
| SLKQALKGLSVEFALLADKAAQQG [SNX8] | 2.32 ± 0.18 | 2.52 ± 0.31 |
| SLLVLIEPVAAGSGIPEVKCYLNG [CLCN6] | 1.99 ± 0.92 | 2.44 ± 0.43 |
| SLQRWEHLKKVASRYQNNIKNDKY [PRIM1] | 2.47 ± 0.25 | 2.91 ± 0.56 |
| SLQSTGKCLLYCNGVLEPLYLCPN [SLC25A39] | 2.03 ± 0.34 | 2.21 ± 0.5 |
| SLRLWDTFGDHHKDRRFAYGRSDV [RHOBTB1] | 2.87 ± 0.38 | 2.92 ± 0.24 |
| SMSSRLSIYDNVPGSILYSSSGDL [DLC1] | 3.24 ± 0.089 | 3.13 ± 0.22 |
| SNHVDDFTTFRGTELSFLVTTHQP [EDNRA] | 2.61 ± 0.4 | 2.8 ± 0.4 |
| SNSLAIAILMKAYQRFRQKSKASF [PTGFR] | 2.1 ± 0.25 | 2.23 ± 0.19 |
| SPDSPKGSSETETEPPVALAPGPA [ESRRA] | 5.56 ± 0.31 | 5.63 ± 0.12 |
| SPEARDARSPSGPSGSLENGTKAD [TRIM29] | 5.36 ± 0.44 | 5.61 ± 0.18 |
| SPQSGSILTEETEVKGTLEGDVCG [PBXIP1] | 5.59 ± 0.11 | 5.33 ± 0.35 |
| SQEAGLPAGAGPSPTFPALGIGMD [SEPHS2] | 4.64 ± 0.22 | 4.65 ± 0.25 |
| SQEEGKSALEDQGSNPSSSNSSQD [PPFIA4] | 5.67 ± 0.16 | 5.62 ± 0.28 |
| SQELPPPDPGPSPEASHLRFRRFR [ZNF263] | 4.76 ± 0.21 | 5.14 ± 0.12 |
| SQGEVEKLIKCDEIQVDSEEPVFE [KLHL12] | 5.23 ± 0.4 | 5.47 ± 0.25 |
| SQPPKKKPKTTNIELQGVPNDEVH [RBBP5] | 5.32 ± 0.2 | 5.28 ± 0.14 |
| SRHLNSQVKKTTTRWCHIVRDSDS [PHTF1] | 2.33 ± 0.54 | 3.15 ± 0.66 |
| SRLWDSRLRHYLGSRYDARRGVSD [DNAAF3] | 3.09 ± 0.33 | 3.23 ± 0.18 |
| SSCCLHICQGIRGLWGTTLTENTA [PKD2L1] | 2.07 ± 0.21 | 1.97 ± 0.24 |
| SSDMMDSSSFSNLDLSEEDSDDPS [VDR] | 5.66 ± 0.25 | 5.63 ± 0.26 |
| SSEDYRQLELVILQSEPHRAGVQW [KCNK9] | 2.41 ± 0.19 | 2.38 ± 0.29 |
